{"source": "patent EP1852441B1", "about": "“Agents that modulate EPH receptor activity” (The Burnham Institute, priority 2002, dated 2004)", "data": [{"target": "EphA4 Fc (EphA4 receptor extracellular domain fused to a human Fc region)", "sequence (Q03137 20-547)": "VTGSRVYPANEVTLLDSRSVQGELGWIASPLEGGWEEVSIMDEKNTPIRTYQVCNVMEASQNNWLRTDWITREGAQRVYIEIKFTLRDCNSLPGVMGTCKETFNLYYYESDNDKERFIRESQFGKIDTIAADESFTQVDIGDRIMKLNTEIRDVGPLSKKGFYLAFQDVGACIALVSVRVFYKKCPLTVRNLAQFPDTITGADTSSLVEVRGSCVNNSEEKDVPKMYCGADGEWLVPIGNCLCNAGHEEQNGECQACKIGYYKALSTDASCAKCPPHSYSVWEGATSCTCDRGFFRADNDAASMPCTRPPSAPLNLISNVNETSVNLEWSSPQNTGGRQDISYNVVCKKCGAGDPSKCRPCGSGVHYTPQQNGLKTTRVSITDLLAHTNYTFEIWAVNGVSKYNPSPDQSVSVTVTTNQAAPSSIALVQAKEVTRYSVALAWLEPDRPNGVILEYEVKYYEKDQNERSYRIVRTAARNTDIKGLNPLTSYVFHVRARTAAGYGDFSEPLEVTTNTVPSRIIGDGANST", "experiment": "inhibition of ephrin-A5 AP binding to EphA4", "units": {"concentration that almost completely inhibits ephrin-A5 AP binding": "µM"}, "values": [{"substance": "synthetic KYL peptide (…)", "concentration that almost completely inhibits ephrin-A5 AP binding": 1}, {"substance": "synthetic APY peptide (…)", "concentration that almost completely inhibits ephrin-A5 AP binding": 10}, {"substance": "synthetic VTM peptide (…)", "concentration that almost completely inhibits ephrin-A5 AP binding": 100}]}]}
